According to PMC3210482 (Journal of molecular biology, 2011):
Where two headings read alike, the source gives them in different places.

Tests used:
[1] = biological target: the molecule itself; assay: FRET or BRET
[2] = biological target: the molecule itself; assay: FRET or BRET; remark: listed apart in the source

B1: RstBHDC (cytoplasmic HAMP, DHp and CA domains of E. coli histidine kinase RstB, amino acids 157-433) (domain or fragment, UniProt P18392 157-433, looked up)
chain: MRPHWQDMLKLEAAAQRFGDGHLNERIHFDEGSSFERLGVAFNQMADNINALIASKKQLIDGIAHELRTPLVRLRYRLEMSDNLSAAESQALNRDISQLEALIEELLTYARLDRPQNELHLSEPDLPLWLSTHLADIQAVTPDKTVRIKTLVQGHYAALDMRLMERVLDNLLNNALRYCHSTVETSLLLSGNRATLIVEDDGPGIAPENREHIFEPFVRLDPSRDRSTGGCGLGLAIVHSIALAMGGTVNCDTSELGGARFSFSWPLWHNIPQFTSA
Kd [1]: 300 nM

B2: EnvZHDC (cytoplasmic HAMP, DHp and CA domains of E. coli histidine kinase EnvZ, amino acids 179-450) (domain or fragment, UniProt P0AEJ4 179-450, looked up)
chain: IRIQNRPLVDLEHAALQVGKGIIPPPLREYGASEVRSVTRAFNHMAAGVKQLADDRTLLMAGVSHDLRTPLTRIRLATEMMSEQDGYLAESINKDIEECNAIIEQFIDYLRTGQEMPMEMADLNAVLGEVIAAESGYEREIETALYPGSIEVKMHPLSIKRAVANMVVNAARYGNGWIKVSSGTEPNRAWFQVEDDGPGIAPEQRKHLFQPFVRGDSARTISGTGLGLAIVQRIVDNHNGMLELGTSERGGLSIRAWLPVPVTRAQGTTKEG
Kd [1]: 400 nM

B3: RstBDC (DHp and CA domains of E. coli RstB, amino acids 201-433) (domain or fragment, UniProt P18392 201-433, looked up)
chain: MADNINALIASKKQLIDGIAHELRTPLVRLRYRLEMSDNLSAAESQALNRDISQLEALIEELLTYARLDRPQNELHLSEPDLPLWLSTHLADIQAVTPDKTVRIKTLVQGHYAALDMRLMERVLDNLLNNALRYCHSTVETSLLLSGNRATLIVEDDGPGIAPENREHIFEPFVRLDPSRDRSTGGCGLGLAIVHSIALAMGGTVNCDTSELGGARFSFSWPLWHNIPQFTSA
Kd [2]: 270000 nM

B4: EnvZDC (DHp and CA domains of E. coli EnvZ, amino acids 223-450) (domain or fragment, UniProt P0AEJ4 223-450, looked up)
chain: MAAGVKQLADDRTLLMAGVSHDLRTPLTRIRLATEMMSEQDGYLAESINKDIEECNAIIEQFIDYLRTGQEMPMEMADLNAVLGEVIAAESGYEREIETALYPGSIEVKMHPLSIKRAVANMVVNAARYGNGWIKVSSGTEPNRAWFQVEDDGPGIAPEQRKHLFQPFVRGDSARTISGTGLGLAIVQRIVDNHNGMLELGTSERGGLSIRAWLPVPVTRAQGTTKEG
Kd [1]: 100 nM
